Results reported in paper PMC11574021, “CEP192 localises mitotic Aurora-A activity by priming its interaction with TPX2” (The EMBO Journal, 2024).

Columns and labels:
[1] = target: FAM-CEP192 501–533 (human) (UniProt Q8TEP8); assay: fluorescence polarisation; direct fluorescence anisotropy: Aurora-A diluted across the plate, 50 nM tracer FAM-CEP192 501–533; 25 mM HEPES pH 7.5, 150 mM NaCl, 2 mM DTT, 5 mM MgCl2, 0.01% Tween 20; 1 h at room temperature
[2] = tested on: Aurora-A-pT288 in U251 cells; assay: Western blot densitometry of Aurora-A-pT288, mitotic U251 cells; format: cell-based, Homo sapiens; settings: mitotic U251 (and RPE1) lysates, siRNA 48 h, in words
Procedure: For western blotting analysis of mitotic lysates, cells were synchronised in mitosis with 10 µM S-Trityl-L-cysteine (STLC, Bio-Techne, 2191-50), an Eg5 inhibitor, for 20 h prior to collecting by mitotic shake-off. For measuring monopolar spindle diameter and counting centriolar foci by immunofluorescence, cells were treated with 10 µM STLC for 1 h and 4 h prior to fixation, respectively.
As noted in the figures, the following drugs were incubated with cells for 30 min at 37 °C: Aurora-B-i ZM447439 2 µM [10 mM], PLK1-I BI2536 1 µM [10 mM] and Aurora-A-i MLN8237 [5 mM] was used at 250 and 500 nM in U251 and RPE1 cells, respectively. Drugs were resuspended in DMSO to the stock concentrations indicated in square brackets. BI2536 (HY-50698), MLN8237 (HY-10971) and ZM447439 (HY-10128) were all purchased from MedChemExpress. For western blotting, a 20-min pre-treatment with proteasome inhibitor (20 µM MG-132, MerckMillipore, 47490 [20 mM]) was required prior to the addition of DMSO control or kinase inhibitors. This prevented mitotic exit as a consequence of checkpoint override following Aurora-A and Aurora-B inhibitor addition.
Cells were lysed on ice for 30 min in lysis buffer (50 mM tris pH 8.0, 300 mM NaCl, 0.2%(v/v) NP-40, 10%(v/v) glycerol, protease inhibitor cocktail C, phosphatase inhibitor cocktail 3 (Sigma, 1:200 dilution), 100 nM okadaic acid (Enzo, ALX-350-003-C100)). Lysates were then centrifuged at 14,000 × g, 15 min, 4 °C, the supernatants were transferred to a fresh tube, and the pellet was discarded. Protein concentrations were measured by Bradford assay using Protein Assay Dye Reagent Concentrate (Bio-Rad Laboratories, 5000006). NuPage LDS sample buffer, supplemented with NuPAGE sample reducing agent (Invitrogen) were added prior to boiling for 10 min at 90 °C. […]
Densitometric quantification of western blots was also performed in ImageJ. Intensity was measured in a rectangular region of interest (ROI) around each band. […] An adjacent region was also measured to account for background intensity.

[3] = tested on: PPP1CA-pT320, PRC1-pT481 and Histone-H3-pS10 in U251 cells; assay: Western blot, mitotic phosphorylations (PPP1CA-pT320, PRC1-pT481, Histone-H3-pS10), asynchronous U251; format: cell-based, Homo sapiens; settings: asynchronous U251, siRNA 48 h
Procedure: Cells were lysed on ice for 30 min in lysis buffer (50 mM tris pH 8.0, 300 mM NaCl, 0.2%(v/v) NP-40, 10%(v/v) glycerol, protease inhibitor cocktail C, phosphatase inhibitor cocktail 3 (Sigma, 1:200 dilution), 100 nM okadaic acid (Enzo, ALX-350-003-C100)). Lysates were then centrifuged at 14,000 × g, 15 min, 4 °C, the supernatants were transferred to a fresh tube, and the pellet was discarded. Protein concentrations were measured by Bradford assay using Protein Assay Dye Reagent Concentrate (Bio-Rad Laboratories, 5000006). NuPage LDS sample buffer, supplemented with NuPAGE sample reducing agent (Invitrogen) were added prior to boiling for 10 min at 90 °C. Equal amounts of protein, between 8–20 µg/lane, were loaded into pre-cast 4–12% Bis-Tris gels (Invitrogen, NP0322BOX) and proteins separated in 1x MOPS buffer (Invitrogen) and transferred to nitrocellulose membrane (0.45 µM). Nitrocellulose was then blocked in 5% milk (wt/v) in TBS, 0.1% Tween (v/v) (TBST) for 1 h. Primary and secondary antibodies were diluted in 5% milk, TBST and incubated overnight at 4 °C or for 1 h at room temperature, respectively. Species-specific secondary antibodies conjugated to horseradish peroxidase (HRP) were used (anti-Mouse, Cytiva NA931V; anti-Rabbit, Cytiva NA934; anti-Sheep, Jackson 713-035-003). Membranes were washed for 1 h in TBST, changing the buffer five times, after each antibody incubation.
siRNA depletion was carried out by reverse transfection using oligofectamine (Thermo Scientific, 12252011) and lipofectamine RNAiMax (Thermo Scientific, 13778075), according to the manufacturer’s instructions, for U251 and RPE1 cells, respectively. For immunofluorescence, 1 × 10^5 cells were seeded in six-well plates and simultaneously transfected with 60 pmol siRNA duplex and 3 µl transfection reagent diluted in 200 µl Opti-MEM serum-free medium. Growth medium was added to a final volume of 2 ml. For western blotting, 1 × 10^6 cells were seeded in 10 cm dishes and transfected with 300 pmol siRNA duplex and 15 µl transfection reagent diluted in 1000 µl Opti-MEM. […]

[4] = target: Aurora-A; settings: from fluorescence polarisation; ref (Burgess et al, [2015]; McIntyre et al, [2017]; Zorba et al, [2014]); cited from earlier work
Procedure: This is a higher affinity than observed in a previous study that used CEP192 proteins fused to MBP, a large protein tag that might have affected the interaction (Park et al, [2023]). For context, the affinity of Aurora-A for its other key mitotic partners are: TPX2_1-43 (Kd 0.3–2 μM from ITC) and TACC ...

[5] = target: T1, phosphorylated Aurora-A^CAKD (Aurora-A 122–403 C290A C393A, not co-expressed with lambda phosphatase) (human, UniProt O14965 122-403, C290A | C393A, phosphorylated (sites of this preparation not printed in the text shown)); assay: cell-based or functional assay
T1 sequence (looked up): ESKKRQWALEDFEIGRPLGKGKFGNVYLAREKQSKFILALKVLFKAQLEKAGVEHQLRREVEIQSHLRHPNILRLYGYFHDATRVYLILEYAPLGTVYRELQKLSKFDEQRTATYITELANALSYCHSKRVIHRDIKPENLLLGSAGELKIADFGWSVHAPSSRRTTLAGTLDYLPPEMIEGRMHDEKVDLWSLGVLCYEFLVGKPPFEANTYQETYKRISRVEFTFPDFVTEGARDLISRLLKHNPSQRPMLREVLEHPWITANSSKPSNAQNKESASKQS

[6] = target: T2, unphosphorylated Aurora-A CAKD (Homo sapiens, UniProt O14965, C290A/C393A); assay: Fluorescence anisotropy competition with FAM-TPX2 7-43; format: binding; settings: competition with 100 nM FAM-TPX2 7-43, 10 μM unphosphorylated Aurora-A CAKD, n = 3 (Appendix Fig. S4E)
T2 construct: 10 μM Aurora-A kinase domain (phosphorylated or unphosphorylated C290A C393A 122–403); His (N, cleaved yes); made in house; host or cells: E. coli RIL, co-expressed with lambda phosphatase
T2 sequence (O14965 122-403 C290A/C393A): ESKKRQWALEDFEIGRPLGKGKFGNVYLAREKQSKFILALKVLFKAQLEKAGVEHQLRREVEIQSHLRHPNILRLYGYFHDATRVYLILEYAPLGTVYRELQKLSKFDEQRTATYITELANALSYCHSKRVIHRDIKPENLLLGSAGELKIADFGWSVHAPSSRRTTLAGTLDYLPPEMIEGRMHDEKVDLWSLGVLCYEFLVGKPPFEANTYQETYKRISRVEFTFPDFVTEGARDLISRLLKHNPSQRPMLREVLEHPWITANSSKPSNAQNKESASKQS
Procedure: Assays were performed in 25 mM HEPES pH 7.5, 150 mM NaCl, 2 mM DTT, 5 mM MgCl2, 0.01% Tween 20. For CEP192 and TPX2 competition assays 10 μM Aurora-A kinase domain (phosphorylated or unphosphorylated C290A C393A 122–403) was preincubated on ice with 100 nM FAM-TPX2 7-43 or 100 nM FAM-CEP192 501–533. For TACC3 competition, due to weaker binding, 25 μM Aurora-A kinase domain (phosphorylated or unphosphorylated C290A C393A 122–403) was preincubated with 100 nM FAM-TACC3 522-536. Serial dilutions of competitor (CEP192) were performed in triplicate into a low volume 384-well black plate, before the premixed Aurora-A and tracer were added. A control row included no tracer. Plates were left incubating for 1 h at room temperature before the fluorescence anisotropy was measured using a HIDEX plate reader, with excitation at 485 nm and emission at 535 nm. For direct binding experiments, the assay was performed as above, but the Aurora-A (122–403 C290A C393A or point mutants) was diluted across the plate from high to low concentration, before the addition of 50 nM tracer (FAM-CEP192 501–533) to three replicate rows. Buffer only was added to the control row.
Fluorescence anisotropy data were processed using Microsoft Excel to calculate intensity and anisotropy using the equation listed in (Yeo et al, [2013]). The IC50 and Kd values were calculated using Origin (OriginLab) where the data fitted to a sigmoid and are summarised in Appendix Table S3.

[7] = target: T3, Aurora-A^M3KD (Aurora-A 122–403 C290A C393A D274N) (human, UniProt O14965 122-403, D274N | C290A | C393A); assay: ITC; CEP192 442–533 titrated into Aurora-A kinase domain (by the legend); 25 °C; 20 mM tris pH 7.5, 200 mM NaCl, 10% glycerol, 5 mM MgCl2; two repeats; settings: both partners purified
T3 construct: Aurora-A kinase domain, human, residues 122-403; also called Aurora-A kinase domain (122–403 C290A C393A D274N); source: E. coli, purified (HisTrap, TEV cleavage, SEC); not shown: His6, N-terminal, cleaved
T3 sequence (looked up): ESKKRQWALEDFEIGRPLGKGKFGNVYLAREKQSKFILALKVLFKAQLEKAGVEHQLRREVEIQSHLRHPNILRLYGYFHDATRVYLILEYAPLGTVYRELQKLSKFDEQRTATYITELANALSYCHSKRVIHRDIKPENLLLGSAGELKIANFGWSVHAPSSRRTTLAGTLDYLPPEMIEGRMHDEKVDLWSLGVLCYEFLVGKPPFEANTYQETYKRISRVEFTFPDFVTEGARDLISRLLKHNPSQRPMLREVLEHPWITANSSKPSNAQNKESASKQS

[8] = target: T4, Aurora-A^CAKD (Aurora-A kinase domain, aa 122–403 C290A, C393A), unphosphorylated (human, UniProt O14965 122-403, C290A | C393A); assay: fluorescence polarisation; competition: 25 μM Aurora-A kinase domain preincubated with 100 nM FAM-TACC3 522-536, CEP192 competitor serially diluted; 25 mM HEPES pH 7.5, 150 mM NaCl, 2 mM DTT, 5 mM MgCl2, 0.01% Tween 20; settings: both partners purified
T4 construct: Aurora-A kinase domain, human, residues 122-403, variant lacking surface cysteines; also called Aurora-A 122–403 C290A C393A; unphosphorylated Aurora-A^CAKD; source: E. coli RIL, co-expressed with lambda phosphatase, purified (HisTrap, TEV cleavage, SEC); not shown: His6, N-terminal, cleaved
T4 sequence (looked up): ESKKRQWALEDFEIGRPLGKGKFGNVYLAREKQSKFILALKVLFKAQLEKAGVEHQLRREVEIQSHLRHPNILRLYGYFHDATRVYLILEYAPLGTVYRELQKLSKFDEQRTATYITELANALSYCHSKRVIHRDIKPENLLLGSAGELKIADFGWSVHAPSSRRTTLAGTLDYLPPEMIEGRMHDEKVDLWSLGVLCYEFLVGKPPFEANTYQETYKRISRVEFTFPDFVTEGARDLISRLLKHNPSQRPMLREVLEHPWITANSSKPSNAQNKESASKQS

[9] = target: T4, Aurora-A^CAKD (Aurora-A kinase domain, …); assay: fluorescence polarisation; competition: 10 μM unphosphorylated Aurora-A^CAKD preincubated with 100 nM FAM-TPX2 7-43, CEP192 competitor serially diluted; 25 mM HEPES pH 7.5, 150 mM NaCl, 2 mM DTT, 5 mM MgCl2, 0.01% Tween 20; settings: both partners purified

Aurora-A^KD R151A (Aurora-A 122–403 R151A) (from UniProt O14965 122-403) (domain or fragment)
Kd [1]: > 10 µM

5′-GGAUAUGGUUGAUCCUAUAtt-3′ [siBora]
activation loop phosphorylation (pT288) of Aurora-A in mitotic cell lysates [2]: no discernible effect | mitotic phosphorylations (PPP1CA-pT320, PRC1-pT481, Histone-H3-pS10) [3]: increased levels of mitotic phosphorylations

Aurora-A^KD R205A (Aurora-A 122–403 R205A) (from UniProt O14965 122-403) (domain or fragment)
Kd [1]: > 5 µM

TACC3 519-563: TACC3 fragment, literature affinity (ELKEESFRDPAEVLGTGAEVDYLEQFGTSSFKESALRKQSLYLKF; UniProt Q9Y6A5 519-563, looked up, fragment)
Kd [4]: ~6 µM

Aurora-A^KD F165D (Aurora-A 122–403 F165D) (from UniProt O14965 122-403) (domain or fragment)
Kd [1]: > 5 µM

B1: human CEP192 442–533 (domain or fragment, UniProt Q8TEP8 442-533, looked up)
chain: IWSPTCERRTCECHESIEKNKDKTDLPQSVVYQNEEGRWVTDLAYYTSFNSKQNLNVSLSDEMNEDFRSGSEAFDLIAQDEEEFNKEHQFIQ
notes: Codon-optimised template from GenScript (CEP192 1-1000); source: E. coli B834 RIL, purified (HisTrap, TEV cleavage, SEC); 15N- or 15N/13C-labelled in Rosetta E. coli for NMR; not shown: His6, N-terminal, cleaved; SUMO, N-terminal, cleaved
ADP-Glo, 10 nM phosphorylated Aurora-A^CAKD with kemptide: IC50 of partial inhibition of kinase activity [5]: 0.032 µM | IC50 [6]: 3.33 µM | Kd [7]: 0.072 µM | stoichiometry N [7]: 0.67 | IC50 [8]: 5.7 µM | IC50 [9]: 4.2 µM

B2: human CEP192 468–533 L484D (domain or fragment, UniProt Q8TEP8 468-533, looked up)
chain: PQSVVYQNEEGRWVTDDAYYTSFNSKQNLNVSLSDEMNEDFRSGSEAFDLIAQDEEEFNKEHQFIQ
notes: source: E. coli B834 RIL, purified (HisTrap, TEV cleavage, SEC); not shown: His6, N-terminal, cleaved; SUMO, N-terminal, cleaved
ADP-Glo, 10 nM phosphorylated Aurora-A^CAKD with kemptide: IC50 of inhibition of kinase activity [5]: 0.22 µM | IC50 [9]: 19.9 µM
